The values below come from doi:10.1101/2020.06.24.169607 (bioRxiv, 2020).

This data set deals with the molecule itself. Nature of the data set: differential scanning calorimetry. (Differential scanning calorimetry records heat flow against a reference as temperature is scanned.)

B1: PSD95-PDZ3 wild type (third PDZ domain of postsynaptic density-95 protein) (domain or fragment)
chain: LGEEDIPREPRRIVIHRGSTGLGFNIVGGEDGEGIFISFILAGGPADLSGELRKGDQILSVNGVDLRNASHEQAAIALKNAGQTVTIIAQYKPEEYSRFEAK
In the case of B1, the “stoichiometry N” value was found to be 6.

For orientation: stoichiometry N means the number of molecules, sites or subunits per partner or assembly.
